From US11858972B2, “Micropeptides and uses thereof” (FUNDACIÓ PRIVADA INSTITUT D'INVESTIGACIÓ ONCOLÒGICA DE VALL …, priority 2018, dated 2024)

What was measured:
BAX, BAK and BCL-2 = test: Apoptosis-related gene expression by qPCR in HCT116; type: cell-based, human; conditions: HCT116 colorectal cancer cell line
Protocol: (§1) FIG. 24. Overexpression of the micropeptide of SEQ ID NO: 3 induces p21 upregulation and a pro-apoptotic program (A) qPCR analysis of p21 expression in HCT116 and A549 cancer cell lines upon SEQ ID NO: 3 overexpression. (B) Western blot analysis of p21 protein in A549 SEQ ID NO: 3-overexpressing cells. Cells treated with Nutlin-3 (10 μM) were used as positive control for p21 upregulation. (C) qPCR analysis of the indicated apoptosis-related genes in SEQ ID NO: 3-overexpressing HCT116 cells.
(§2) Total RNA was extracted with Trizol® and treated with TURBO™ DNase following provider's recommendations. 1 μg of RNA was retrotranscribed using iScript™ cDNA Synthesis Kit (BioRad). Gene expression was analysed by quantitative real time PCR using PowerUp SYBR Green Master Mix (Thermo Fisher Scientific) in the 7900HT Fast Real-Time PCR System (Applied Biosystems). Cycle threshold (Ct) values were normalized to GAPDH.

p21 protein = p21 protein by Western blot in A549; type: cell-based, human
Protocol: as §1
Cells pellets (4-5*10^6 cells) were homogenized in medium-salt lysis buffer (150 mM NaCl, 50 mM Tris pH 8, 1% NP40 and protein inhibitors cocktail). 50 μg of protein was loaded per lane in a 12% acrylamide gel and electrophoresed in Tris-Glycine SDS Running Buffer. The following antibodies were used: Anti-HA-Tag (Abcam, 1:5000), Anti-p53 (Santa Cruz, 1:1000), Anti-p21 (Thermo Fisher, 1:1000), Anti-GAPDH (Thermo Fisher, 1:5000).

p21 [1] = test: p21 expression by qPCR in HCT116; type: cell-based, human; conditions: HCT116 cells
Protocol: as §1, §2

p21 [2] = test: p21 expression by qPCR in A549; type: cell-based, human; conditions: A459 cells
Protocol: as §1, §2

[3] = tested on: HCT116, human colorectal cancer; test: Cell death after retroviral overexpression (phase contrast images); type: cell-based
Excerpt: (§3) FIG. 23. Overexpression of the micropeptide of SEQ ID NO: 3 in cancer cell lines. (A) Analysis of SEQ ID NO: 3 overexpression by qPCR in A459 cells. (B) Detection of SEQ ID NO: 3 micropeptide expression in A459 cells by Western blot. (C) Phase contrast images of the indicated cell lines after SEQ ID NO: 3 overexpression.

A549, human lung cancer = test: as above; type: cell-based
Excerpt: as §3

[4] = tested on: EMT regulators and adhesion factors in human primary fibroblasts (IMR90); test: EMT related gene expression by qPCR in IMR90; type: cell-based; conditions: vs empty vector
Excerpt: (§4) FIG. 15. Expression of the micropeptide of SEQ ID NO: 2 induces loss of mesenchymal identity in IMR90 (A), MIA PaCa-2 (B) and BxPC-3 (C) cell lines. mRNA levels of the indicated genes measured by qPCR. Values are relative to cells expressing the empty vector as a control. *P<0.05, **P<0.01, ***P<0.001 using Student's t-test for statistics. Error bars represent standard error of n=3 technical replicates.
as §2

MIA PaCa-2 cells = test: Wound healing assay; type: cell-based; conditions: MIA PaCa-2, vs empty vector
Protocol: (§5) FIG. 17. The micropeptide of SEQ ID NO: 2 impairs migration capability of pancreatic cancer cell lines. Wound healing assay was performed in MIA PaCa-2 (A) and BxPC-3 (B) cells infected with MIDORI or empty vector. Phase contrast images show the wound at the indicated time points after the scratch was performed.
(§6) MIA PaCa-2 and BxPC-3 cells were trypsinized, counted, and 400,000 cells/well were seeded in 6-well plates. Next day, a pipette tip was used to scratch the surface of cell monolayer, forming a wound. An Olympus CeIIR microscope equipped with a Hamamatsu C9100 camera was used to follow the closure of the wound.

BxPC-3 cells = test: Wound healing assay; type: cell-based; conditions: BxPC-3, vs empty vector
Protocol: as §5, §6

[5] = tested on: EMT regulators and adhesion factors in BxPC-3 pancreatic cancer cell line; test: EMT related gene expression by qPCR in BxPC-3; type: cell-based; conditions: BxPC-3, vs empty vector
Excerpt: as §4, §2

BxPC-3 cell line = test: Invasion assay (Boyden chamber, Matrigel); type: cell-based; conditions: BxPC-3, 24 hours after seeding, vs empty vector
Protocol: FIG. 18. Expression of the micropeptide of SEQ ID NO: 2 impairs cell invasion in pancreatic cancer cells. (A) Invasion of BxPC-3 cells transduced with micropeptide of SEQ ID NO: 2 or empty vector across matrigel-covered inserts. Representative pictures of invading cells 24 hours after seeding. (B) Relative number of invading cells. Bars represent the average of two independent experiments±SD (n=2), as relative to invading cells in the empty vector conditions. * p<0.05, using Student's t-test.
(§7) BxPC-3, MDA-MB-231, A549 and H10 cell lines were trypsinized, counted, and 20.000 cells/well were seeded in triplicate in a Corning® cell culture insert (Boyden chamber) in which the porous membrane is coated with a layer of Matrigel® to mimic an extra cellular matrix (ECM). Cells were allowed to invade through the coated membrane for 24 hours in the cell incubator at 37° C. After the incubation time, culture inserts were fixed in methanol 5 minutes at RT and stained using Crystal Violet 20 minutes at RT. The excess of Crystal Violet staining was removed washing with PBS and pictures of the chambers were taken using an Olympus CeIIR microscope. Invading cells were counted using ImageJ and fold change was calculated normalizing to the control.

[6] = tested on: MDA-MB-231 breast cancer cell line; test: Invasion assay (Boyden chamber, Matrigel); type: cell-based, human; conditions: MDA-MB-231, 24 hours after seeding, vs empty vector
Protocol: FIG. 22. Expression of the micropeptide of SEQ ID NO: 2 reduces cell invasion of breast cancer cells. (A) Invasion of MDA-MB-231 breast cancer cells transduced with micropeptide of SEQ ID NO: 2 or empty vector across matrigel-covered inserts. Representative pictures of invading cells 24 hours after seeding. (B) Relative number of invading cells±SD (n=3 technical replicates), as relative to invading cells in the empty vector conditions. * p<0.05, using Student's t-test.
as §7

[7] = tested on: SLUG, ZEB1, ZEB2, VIMENTIN, E-CADHERIN and CYTOKERATIN-5 in MDA-MB-231; test: Mesenchymal and epithelial gene expression by qPCR in MDA-MB-231; type: cell-based, human; conditions: MDA-MB-231, vs empty vector
Protocol: FIG. 21. Overexpression of the micropeptide of SEQ ID NO: 2 induces loss of mesenchymal identity. mRNA levels of the indicated genes were measured by qPCR in MDA-MB-231 cell line. Values are relative to cells expressing the empty vector as a control. *P<0.05; **P<0.01; ***P<0.001 using Student's t-test for statistics. Error bars represent standard error of n=3 technical replicates.
as §2

[8] = tested on: PDAC pancreatic cancer cells co-cultured with CAFs; test: CAFs pro-invasive activity, co-culture with PDAC cells in Matrigel coated inserts; type: cell-based, mice; conditions: micropeptide expressed in CAFs in bottom compartment, PDAC cells co-cultured 24 h
Protocol: FIG. 19. Expression of the micropeptide of SEQ ID NO: 2 reduces pro-tumoral activity of mCAFs cells. (A) Invasion of WT PDAC pancreatic cancer cells across matrigel-covered inserts where mCAFs expessing the micropeptide of SEQ ID NO: 2 or empty vector were seeded in the bottom compartment of the Boyden chambers. Representative pictures of invading cells 24 hours after seeding. (B) Relative number of invading cells.±SD (n=3 technical replicates), as relative to invading cells in the empty vector conditions.
BxPC-3 and A549 cell lines were cultured in RPMI supplemented with 10% of FBS and penicillin-streptomycin. Patient derived-H10 skin squamous cell carcinoma cell line was cultured in DMEM-F12 supplemented with B27 and penicillin-streptomycin. Cancer associated fibroblasts (CAFs) and PDAC cell lines were derived from LSL^−KrasG12D/+;LSL-Trp53R172H/+;Pdx-1-Cre mice and cultured in DMEM-F12 supplemented with 10% FBS and penicillin-streptomycin. All the other cell lines were cultured in DMEM supplemented with 10% of FBS and penicillin streptomycin. Cultures were routinely tested for mycoplasma and were always negative.
In order to test CAFs pro-invasive activity, 40.000 CAFs/well were seeded in 24-well plates. 48 h later, PDAC cells were trypsinized, counted, and 20.000 cells were seeded in the upper compartment of Matrigel® coated inserts that were placed over CAFs containing wells. […]

[9] = tested on: EMT regulators and adhesion factors in MIA PaCa-2 pancreatic cancer cell line; test: EMT related gene expression by qPCR in MIA PaCa-2; type: cell-based; conditions: MIA PaCa-2, vs empty vector
Excerpt: as §4, §2

[10] = tested on: EMT regulators, adhesion factors and METALLOPROTEINASE-2 in murine pancreatic cancer associated fibroblasts (mCAFs); test: EMT related gene expression by qPCR in mCAFs; type: cell-based; conditions: vs empty vector
Protocol: FIG. 16. Overexpression of the micropeptide of SEQ ID NO: 2 induces loss of mesenchymal identity. mRNA levels of the indicated genes were measured by qPCR in mCAFs (A-B) cells. Values are relative to cells expressing the empty vector as a control. *P<0.05; **P<0.01; ***P<0.001 using Student's t-test for statistics. Error bars represent standard error of n=3 technical replicates.
as §2

Row | Molecule | expression of the antiapoptotic gene BCL-2 (BAX, BAK and BCL-2) | expression of the pro-apoptotic genes BAX and BAK (BAX, BAK and BCL-2) | p21 protein levels (p21 protein) | p21 expression (qPCR) (p21 [1]) | p21 expression (qPCR) (p21 [2]) | cell death [3] | cell death (A549, human lung cancer) | expression of EMT regulators SNAIL, SLUG, ZEB1, ZEB2, TWIST1 and VIMENTIN (if expressed) and adhesion factors COLLAGEN I, COLLAGEN IV, CD44 and FIBRONECTIN [4] | migration capability in wound healing assays (MIA PaCa-2 cells) | migration capability in wound healing assays (BxPC-3 cells) | expression of EMT regulators SNAIL, SLUG, ZEB1, ZEB2, TWIST1 and VIMENTIN (if expressed) and adhesion factors COLLAGEN I, COLLAGEN IV, CD44 and FIBRONECTIN [5] | invasion (BxPC-3 cell line) | invasion capability [6] | expression of epithelial markers E-CADHERIN and CYTOKERATIN-5 [7] | expression of the EMT regulators SLUG, ZEB1, ZEB2 and VIMENTIN [7] | pancreatic cancer cell invasion (non-cell autonomous) [8] | expression of EMT regulators SNAIL, SLUG, ZEB1, ZEB2, TWIST1 and VIMENTIN (if expressed) and adhesion factors COLLAGEN I, COLLAGEN IV, CD44 and FIBRONECTIN [9] | expression of EMT regulators SNAIL, SLUG, ZEB1, ZEB2, TWIST1 and VIMENTIN (if expressed) and adhesion factors COLLAGEN I, COLLAGEN IV, CD44 and FIBRONECTIN [10] | expression of METALLOPROTEINASE-2 [10]
1 | SEQ ID NO: 3: 78-amino acid micropeptide encoded by the first exon of LINC0086 lncRNA (protein, listed as Homo sapiens) MAASAALSAAAAAAALSGLAVRLSRSAAARGSYGAFCKGLTRTLLTFFDLAWRLRMNFPYFYIVASVMLNVRLQVRIE | downregulation | upregulation | increased p21 protein levels | substantial p21 upregulation | substantial p21 upregulation | massive cell death | massive cell death | – | – | – | – | – | – | – | – | – | – | – | –
2 | SEQ ID NO: 2: 64-amino acid micropeptide encoded by ZEB2 antisense 1 (ZEB2AS1) long non-coding RNA (protein, listed as Homo sapiens) MVRRKSMKKPRSVGEKKVEAKKQLPEQTVQKPRQECREAGPLFLQSRRETRDPETRATYLCGEG | – | – | – | – | – | – | – | downregulation | decreased migration capability | decreased migration capability | downregulation | decreased invasion | decreased invasion capability | upregulation | downregulation | reduces pancreatic cancer cell invasion | downregulation | downregulation | downregulation
